Reference: publication PMC3335734

What was measured:
wild-type FliM (E. coli) = target: T1, wild-type FliM (E. coli) (UniProt P06974)
T1 sequence: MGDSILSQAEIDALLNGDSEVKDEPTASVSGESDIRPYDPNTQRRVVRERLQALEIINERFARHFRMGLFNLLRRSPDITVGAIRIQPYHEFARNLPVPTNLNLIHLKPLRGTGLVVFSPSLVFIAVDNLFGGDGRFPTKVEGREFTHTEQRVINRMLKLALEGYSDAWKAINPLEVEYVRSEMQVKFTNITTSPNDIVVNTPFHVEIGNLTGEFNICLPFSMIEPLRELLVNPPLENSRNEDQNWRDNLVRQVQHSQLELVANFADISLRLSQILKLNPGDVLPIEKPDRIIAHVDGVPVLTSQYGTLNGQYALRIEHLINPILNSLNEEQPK

FliM-YFP (E. coli) = target: T2, FliM-YFP (E. coli) (UniProt P06974)
T2 sequence: T1 sequence

CW bias of motors, bead assay, cheR cheB cells expressing wild-type FliM (wild-type FliM (E. coli)): 58%
speed of motors, bead assay, cheR cheB cells expressing wild-type FliM (wild-type FliM (E. coli)): 51.5 Hz
switching rate of motors, bead assay, cheR cheB cells expressing wild-type FliM (wild-type FliM (E. coli)): 3.4 s⁻¹
CW bias of motors, bead assay, cheR cheB cells expressing FliM-YFP (FliM-YFP (E. coli)): 61%
speed of motors, bead assay, cheR cheB cells expressing FliM-YFP (FliM-YFP (E. coli)): 50.4 Hz
switching rate of motors, bead assay, cheR cheB cells expressing FliM-YFP (FliM-YFP (E. coli)): 3.8 s⁻¹
B1: CheY-P (natural protein)
chain: MADKELKFLVVDDFSTMRRIVRNLLKELGFNNVEEAEDGVDALNKLQAGGYGFVISDWNMPNMDGLELLKTIRADGAMSALPVLMVTAEAKKENIIAAAQAGASGYVVKPFTAATLEEKLNKIFEKLGM
modifications: phosphorylated (CheY-P); residue not given
